Measured values published in patent publication US20240400689A1 (ANTENGENE BIOLOGICS, published 2024).
Changes are numbered by the printed parent chain.

T1: human CD276 protein (human, UniProt Q5ZPR3 29-534)
T1 construct: whole, on cells; for SKOV3 and the other cancer lines the protein is the cells' own; also called B7-H3; B7H3
T1 sequence (looked up): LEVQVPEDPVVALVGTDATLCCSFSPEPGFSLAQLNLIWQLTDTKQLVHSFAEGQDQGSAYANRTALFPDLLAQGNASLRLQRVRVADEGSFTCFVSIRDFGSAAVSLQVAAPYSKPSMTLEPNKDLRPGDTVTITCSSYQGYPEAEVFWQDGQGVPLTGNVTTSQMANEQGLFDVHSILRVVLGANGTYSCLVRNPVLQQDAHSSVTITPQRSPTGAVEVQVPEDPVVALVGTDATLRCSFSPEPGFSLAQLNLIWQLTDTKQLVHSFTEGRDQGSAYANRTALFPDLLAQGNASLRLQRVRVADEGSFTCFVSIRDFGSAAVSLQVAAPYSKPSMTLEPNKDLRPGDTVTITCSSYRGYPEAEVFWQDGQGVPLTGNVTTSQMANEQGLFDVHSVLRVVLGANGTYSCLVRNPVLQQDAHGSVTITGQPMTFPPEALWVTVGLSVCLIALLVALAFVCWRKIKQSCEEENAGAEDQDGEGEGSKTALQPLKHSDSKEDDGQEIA

T2: HUMAN B7H3 (Biacore analyte) (human, UniProt Q5ZPR3 29-461, limits assumed)
T2 construct: also called hB7H3
T2 sequence (looked up): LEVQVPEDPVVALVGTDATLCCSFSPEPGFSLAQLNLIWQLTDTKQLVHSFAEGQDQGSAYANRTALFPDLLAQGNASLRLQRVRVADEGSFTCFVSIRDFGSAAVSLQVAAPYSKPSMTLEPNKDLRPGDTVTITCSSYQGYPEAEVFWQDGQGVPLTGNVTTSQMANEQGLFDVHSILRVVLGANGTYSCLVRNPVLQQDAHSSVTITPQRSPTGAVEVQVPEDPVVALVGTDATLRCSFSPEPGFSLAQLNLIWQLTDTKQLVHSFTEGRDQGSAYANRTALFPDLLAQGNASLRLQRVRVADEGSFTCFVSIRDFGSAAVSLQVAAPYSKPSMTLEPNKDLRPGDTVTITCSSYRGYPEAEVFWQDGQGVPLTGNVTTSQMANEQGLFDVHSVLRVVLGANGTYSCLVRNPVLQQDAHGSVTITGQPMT

B1: 20-F8-B5-G2 (human IgG1 chimeric antibody) (antibody, V domains shown)
VH: EVQLQESGPSLVKPSQTLSLTCSVTGDSITSAYWNWIRKFPGNKLEYMGYISNSGSTYYNPSLKSRISITRDTSKNQYYLQLNSVTTEDTGTYYCVRGERYYGYGAYWGQGTLVTVSA
VL: DIVMTQATPSVPVTPGESISISCRSSKSLLHSNGNTYLYWFLQRPGQSPQLLIYRMSNLASGVPDRFSGSGSGTAFTLRISRVEAEDVGVYYCMQHLEYPFTFGAGTKLELK
notes: human IgG1 chimeric antibody of the mouse clone
B2: 15-G1-D1-E3 (human IgG1 chimeric antibody) (antibody, V domains shown)
VH: QVQLQQPGAELVKPGTSVKLSCKASGYTFTSYWIHWVKQRPGQGLEWIGMIHPKSGTVDYNEKFKSKATLTADKSSNTAYMQLSSLTSEASVVYYCARGENYDYRPQFVYWGQGTLVTVSA
VL: QLVLTQSSSASFSLGASAKLTCTLSSQHSTYTIEWYQQQPLKPPKYVMELKKDGSHRTGDGIPDRFSGSSSGADRYLSISNIQPEDEAIYICGVGDTIKEQFVYVFGGGTKVTVL
notes: as for B1
B3: 2-A7-B10-A3 (human IgG1 chimeric antibody) (antibody, V domains shown)
VH: QVQLQQSGAELVRPGVSVKISCKGSGYTFTDYAMHWVKQSHAKSLEWIGVINTNYVNTSYNQKFKGKATMTVDKSSSTAFMELARLTSEDSAIYYCARGGKYGNYVFFFAYWGQGTLVTVSA
VL: DIQMTQTTSSLSASLGDRVTISCRASQDISNYLNWYQQKPDGTVKLLIYYTSRLHSGVPSRFSGSGSGTDYSLTISNLEQEDIATYFCQQGNTLPYTFGGGTKLEIK
B4: 3-G7-D8-D3 (human IgG1 chimeric antibody) (antibody, V domains shown)
VH: QVQLQQSGAELARPGTSVKLSCKASGYTFTTYWIQWVKQRPGQGLEWIGAIYPGDGDTRYTQKFKGKATLTADKSSSTAYMQLSTLASEDSAVYYCARPYDGYYIDYPMDSWGQGTSVTVSS
VL: QIVLTQSPAIMSASPGEKVTMTCSASSRINYMHWYQQKPGTSPIIWIYDTSKLASGVPARFSGSGSGTSYSLTISSMEAEDAATYYCHQRSSYPFTFGSGTKLEIK
notes: as for B1
B5: 9-G2-H6-E4 (human IgG1 chimeric antibody) (antibody, V domains shown)
VH: EVQLQQSGPDLVKPGASVKISCKASGYSFTGYFMNWVKQRHGKSLEWIGYINPNNGDTIYNQKFKGKATLTVDKSSSTAHMELLSLTSEDSAVYYCGRGGLPFGALDYWGQGTSVTVSS
VL: DIVMSQSPSSLAVSVGEKVNMSCKSSQSLLYSRNQKNYLAWNQQKPGQSPKLLIYWASARESGVPDRFTGSGSGTDFTLTISSVKAEDLAAYYCQQYHSYPYTFGGGTKLELK
notes: as for B1
B6: 14-E7-G9-D4 (human IgG1 chimeric antibody) (antibody, V domains shown)
VH: EVQLQQSGPELVKPGASVKMSCKASGYTFTNYIMHWVKQKPGQGLEWIGYINPYNDGIKYNEKFKGKATLTSDKSSSTAYMELSSLTSEDSAVYYCTRWGNYVFYYTMDYWGQGTSVTVSS
VL: QIVLSQSPAILSASPGEKVTMTCRASSSVSYMHWYQQKPGSSPKPWIYATSNLASGVPARFSGSGSGTSYSLTISRMEAEDAATYYCQQWSGNPPLTFGAGTKLELK
notes: as for B1
B7: 23-F10-G4-F11 (human IgG1 chimeric antibody) (antibody, V domains shown)
VH: EVQLQESGPDLVRPGALVKLSCKSSGFNIKDYPIHWVRQRPEQGLEWIGWFDPDNGNVIYDPRFQGKASITADTSSNTAYLQLNSLTSEDTAVYYCSSPYGAMDYWGQGTSVTVSS
VL: QIVLTQSPEIMSASPGEKVTMTCSASSSVSYIHWYQQKSGTSPKRWIYDTSKLASGVPARFSGSGSGTSYSLTIRSMEAEDAATYYCQQGSSNPRTFGGGTKLEIK
notes: as for B1
B8: 27-F8-E10-E11 (human IgG1 chimeric antibody) (antibody, V domains shown)
VH: EVQLQQSGPELVKPGASVKISCKTSGYTFTEYAMHWVKQSHGKILEWIGGINPNIGGTTYNQKFKDKATLTVDKSSSTASMELRSLTSEDSAVYYCARFLVPSTEGFTYWGQGTLVTVSA
VL: B7 VL with E9A, I32M, K52R, L53V, R75S, G90W, R95L, G99A, I105L
notes: as for B1
B9: 3-C2-C3-E7 (human IgG1 chimeric antibody) (antibody, V domains shown)
VH: EVQLQQSGPELVKPGASVKISCKTSGYTFTENTMHWVKQSHGKRLEWIGGINPNTGGTTYNQKFKGKATLTVDKSSSTAYMELRSLTSEDSAVYYCARRGTNWEHWYFDVWGAGTTVTVSS
VL: B7 VL with E9A, I32M, R75S, G90W, R95L, G99A, I105L
notes: as for B1
B10: 27-E7-D8-C7 (human IgG1 chimeric antibody) (antibody, V domains shown)
VH: EVQLQESGPELVRPGVSVKISCKGSGYTFTDYAMHWVKQSHAKSLEWIGVINTYSDNTNYNRKFKGKATMTVDKSSSTAYMELARLTSEDSAIYYCARGLLLRSQLGVYFDYWGQGTTLTVSS
VL: QIVLSQSPAILSASPGEKVTMTCRASSSVSYMHWYQQKPGSSPKPWIYATSNLASGVPARFSGSGSGTSYSLTISRVEAEDAATYYCQQWSSNPWTFGGGTKLEIK
notes: as for B1
B11: 30-E2-G7-G7 (human IgG1 chimeric antibody) (antibody, V domains shown)
VH: EVQLQESGGGLVKPGGSLKLSCAASGFTFSYYAMSWVRQTPEKRLEWVATINGDGSHTYYPDSVRGRFTISRDNAKNTLYLQVSSLRSEDTAMYYCASLLQLGPFWGQGTTLTVSS
VL: DIVMTQSQKFMSTSVGDRVSVTCKASQNVGTNVAWYHQRPGQSPKPLIYSASYRYSGVPDRFTGSGSGTDFTLTISNVQSEDLAEYFCQQYNNYPLTFGSGTKLEIK
notes: as for B1
B12: 11-G10-B4-B11 (human IgG1 chimeric antibody) (antibody, V domains shown)
VH: DVQLQESGPGLVKPSQSLSLTCTVTGYSITSDYAWNWIRQFPGNKLEWMGYISYSGSTSYNPSLKSRISITRDTSKNQFFLQLNSVTTEDTATYYCARGGPWFAYWGQGTLVTVSA
VL: DVVMTQTPLSLPVSLGDQASISCRSSQSLVHSNGNTYLHWYLQKPGQSPKLLIYKVSNRFSGVPDRFSGSGSGTDFTLKISRVEAEDLGVYFCSQSTHVPFTFGSGTKLEIK
notes: as for B1
B13: 21-B3-B1-H5 (human IgG1 chimeric antibody) (antibody, V domains shown)
VH: QIQLVQSGPELKKPGETVKISCKASGYIFRNYGMNWVKQAPGKGLKWMGWINSYTGKPTYVDDFKGRFAFSLETSASTAYLQINNLKNEDMATYFCARDDGYWYTMDYWGQGTSVTVSS
VL: B12 VL with N35H, F101W, S105G
notes: as for B1
B14: 9-E8-F9-C10 (human IgG1 chimeric antibody) (antibody, V domains shown)
VH: EVQLQQSGAELVRPGTSVKISCKASGYAFSDYWLSWVKQRPGHGLEWIGDICPGSGNIYYNERFKDKVILTADRSSSTAYLQFSSLTSEDSVVYFCTRLITRVIDYWGQGTSVTVST
VL: ENVLTQSPAIMSASPGEKVTMTCSASSSVNYMHWYQQKSSTSPKLWIYDTSKLSSGVPGRFSGSGSGNSYSLTISSMEAEDVATYYCFQGSGYPLTFGAGTKLELK

How the values were obtained:
human CD276 protein [1] = biological target: T1, human CD276 protein; test: FACS on SKOV3 cells
Description: Sequences of 31 mouse antibodies from Table 5 were selected to generate and produce human IgG1 chimeric antibodies. The binding affinity of these antibodies and bench mark antibody, Enoblituzumab (see U.S. Pat. No. 8,802,091, MGA271, specifically with a construct designated as hBRCA84D-2) and MGC018 (an antibody-drug-conjugate, in which the mAb MGA017 (human IgG1) is conjugated via a cleavable linker to the prodrug seco-DUocarmycin hydroxyBenzamide Azaindole (DUBA), an alkylating agent that can damage DNA in both dividing and non-dividing cells, thereby causing cell death) with human patient derived ovarian cancer cell line, SKOV3, was determined by FACS analysis.
1. Digested cells using Trypsin (1×); Centrifuged the harvested cells at 300 g for 3 min and discarding the supernatant. […] 2. Washed the cells 2 times with FACS buffer by centrifuging at 300 g for 3 min and discarding the supernatant. [0445] 3. […] Kept the cells in dark for FACS analysis.

human CD276 protein [2] = biological target: T1, human CD276 protein; test: cell-based or functional assay
[3] = biological target: T2, HUMAN B7H3 (Biacore analyte); test: SPR, Biacore 8K, antibody captured, B7H3 as analyte, 1:1 binding

Binder | EC50 (human CD276 protein [1]) [µg/mL] | MFI (Max) (human CD276 protein [1]) | EC50 of antibody induced ADCC effect on SKOV3 (human CD276 protein [2]) [µg/mL] | Kd [3] [pM] | koff [3] [s⁻¹] | kon [3] [M⁻¹ s⁻¹]
B1 | 1.11 | 3010 | 3.01 |  |  | 
B2 | 0.811 | 3190 | 0.0655 | 383 | 0.000211 | 550000
B3 |  |  | 4.21 |  |  | 
B4 | 0.509 | 1210 | 0.00898 |  |  | 
B5 | 3.66 | 292 | 13.6 |  |  | 
B6 | 1.62 | 2730 | 0.252 |  |  | 
B7 | 4.42 | 6720 | 0.137 |  |  | 
B8 | 2.26 | 3220 | 0.0238 | 621 | 0.000173 | 278000
B9 | 1.43 | 3700 | 0.186 |  |  | 
B10 | 0.542 | 4750 | 0.103 |  |  | 
B11 | 0.814 | 5630 | 0.247 |  |  | 
B12 | 0.536 | 3750 | 17.3 |  |  | 
B13 | 0.723 | 2720 | 0.648 |  |  | 
B14 |  |  | 4.05 |  |  | 
